In patent US20100151496A1:

Target: TRAP-220-EA-Nuc fusion protein
Assay: cell-based or functional assay

- EC50 of the small-molecule inverse agonist XCT790 for loss of the β-galactosidase complementation signal (ERRα fusion with coactivator-EA fusion) in CHO cells: 300 nM
- S/B (signal/background) of β-galactosidase enzyme fragment complementation in CHO cells; loss of signal with the inverse agonist XCT790: 3 fold
Substance: ERRα (estrogen-related receptor α) fused to the small β-galactosidase fragment (NHR-PK fusion), expressed in CHO cells
